Experimental data reported in patent publication US20210253731A1 (BETH ISRAEL DEACONESS MEDICAL CENTER, published 2021).

Columns and labels:
human CD39 = target: T1, human CD39 (human, UniProt P49961 38-478, limits assumed); test: assay not described
T1 construct: Target as named in the general statements on 5F2 and PB1-PB5 specificity; also called hCD39; ectonucleoside triphosphate diphosphohydrolase-1
T1 sequence (looked up): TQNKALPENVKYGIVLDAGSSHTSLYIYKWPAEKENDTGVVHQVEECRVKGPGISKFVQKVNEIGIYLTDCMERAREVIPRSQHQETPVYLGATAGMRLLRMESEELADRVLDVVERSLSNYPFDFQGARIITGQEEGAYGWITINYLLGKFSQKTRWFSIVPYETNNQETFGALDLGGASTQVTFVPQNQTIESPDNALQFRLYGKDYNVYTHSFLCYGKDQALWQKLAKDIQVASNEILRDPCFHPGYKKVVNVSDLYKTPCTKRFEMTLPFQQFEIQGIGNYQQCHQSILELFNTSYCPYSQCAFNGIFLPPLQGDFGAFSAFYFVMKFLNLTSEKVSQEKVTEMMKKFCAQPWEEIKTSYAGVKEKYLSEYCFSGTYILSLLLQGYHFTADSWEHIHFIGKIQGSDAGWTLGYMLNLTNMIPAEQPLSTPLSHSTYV

mouse CD39 = target: T2, mouse CD39 (mouse, UniProt P55772 38-478, limits assumed); test: assay not described
T2 construct: Target as named in the general statement on 5F2 specificity; also called mCD39
T2 sequence (looked up): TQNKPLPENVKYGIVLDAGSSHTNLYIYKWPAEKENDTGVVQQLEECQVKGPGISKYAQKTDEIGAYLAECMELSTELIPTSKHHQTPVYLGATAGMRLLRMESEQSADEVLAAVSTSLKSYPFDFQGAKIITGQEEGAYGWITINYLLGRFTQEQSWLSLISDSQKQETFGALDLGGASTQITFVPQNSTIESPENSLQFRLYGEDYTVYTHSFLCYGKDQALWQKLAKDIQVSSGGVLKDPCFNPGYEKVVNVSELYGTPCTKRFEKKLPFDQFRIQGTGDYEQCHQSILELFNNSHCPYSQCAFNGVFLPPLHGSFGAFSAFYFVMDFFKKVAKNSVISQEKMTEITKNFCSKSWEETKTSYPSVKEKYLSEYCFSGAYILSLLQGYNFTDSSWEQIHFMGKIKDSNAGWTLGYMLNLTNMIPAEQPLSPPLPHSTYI

B1: PB4 rabbit monoclonal anti-human CD39 antibody (antibody, V domains shown)
VH: QEQLVESGGGLVQPEGSLTLTCTASGFSFSSSYYMCWVRQAPGKGLEWIGCIYIGSSTTYYATWAKGRFTISKTSSTAVTLQMTGLTAADTATYFCARDQYDDSGNLWGPGTLVTVSS
VL: DVVMTQTPASVSEPVGGTVTIKCQASQSIYSGLAWYQQKPGQPPNLLIYKASNLASGVSSRFKGSRSGTEYTLTISDLECADAATYYCQNWYGISSYGRAFGGGTEVVVKG
notes: Full rabbit heavy and light chains
Human CD39
  binding result: binds

B2: murine monoclonal 5F2 (anti-CD39 antibody) (antibody, V domains shown)
VH: EVQLEESGPGLVQPSQRLSITCTISGFSLTSYGIHWVRQSPGKGLEWLGVIWSGGNTDYNAAFISRLSISKDNSKSQVFFKMNSLQVGDTATYYCARNGHGSNIPWFVYWGQGTLVTVST
VL: DIQLTQSPASLSVATGEKVTIRCITSTDVDDDMNWFQQKPGEPPNLLISEGDTLRPGVPSRFSSSGYGTDFVFTIENTLSEDVADYYCLQSDNMPLTFGGGTKLEIK
notes: also called anti-CD39 5F2 antibody; 5F2 mAb
Human CD39
  binding result: binds
Mouse CD39
  binding result: binds
